Assay: yeast display, Sf9 membrane polyspecificity reagent, FACS + sequencing; frameworks hold sequencing errors
Procedure, shortened: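 Galactose induction of a Saccharomyces cerevisiae BJ5465 synthetic nanobody display library ran 36–48 hours. The cells were then stained for 1 hour at 4 °C with 10% biotinylated, detergent-solubilized Sf9 membrane reagent, pulled down on streptavidin microbeads and FACS-sorted into low and high (top ~1%) gates on expression and reagent-binding fluorescence. Labels for polyreactivity follow the gate of origin.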

Sequence | polyreactivity (PSR sort gate)
QVQLVESGGGLVQAGGSLRLSGAASGLIFSRYAMGWYRQAPGKVRELVAAITSGTSTYDADSVKGRFTISRDNAKNTVYKQMNSLKPEDTAGYYCAARWWTYNARDYPDYYWGQGTQVTVSS | high polyreactivity
QVQLVESGGGLVQAGGSLRLSCAASGYIFAIYAMGCYRQAPGKERELVAAISTSGGSTYYADSVKGRFTISRDNAKNTVYLQMNSLKPDDTAVYYCARPTTYGYYYWGQGTQVTVSS | high polyreactivity
QVQLVESGAGLVQAGGSLRLSCAPSGRIFTPYAMGWYRQAPGKERELVAVIRDGSTYYADSVKGRFTISRDNSKNTVYLQMNSLKPEDTAVYYCRYDIWVWWSGAYDYWGQGTQVTVSS | low polyreactivity
QDQLVESGGGLVQAGGSLRISSAASGRTYKSNAMGWYRQAPGKERELVATISRGGGSTYYADSVKGRFTISRDNAKNTVYLQMNSLKPEDTAVYYCAKGSNSYLRYHYTYPYDYWGQGTQVTVSS | high polyreactivity
QVQLVESGGGLVQAGGSLRLSCAASGRTLRINTMGWYRQAPGKERELVADITSSGGSTYYADSVKGRFTISRDNAKNTVYLQMNSLKPEDTAVYYCAADPIDIYYWEFDYLGQGTQVTVSS | low polyreactivity
QVQLVESGGGLVQAGGSLRLSCAASGRIFTTYAMGWYRQAPGKERELVAAISRSGGSTYYADSVKGRFTISRDNAKNSVYLQMNSLKPEDTAVYYCAAVPTSNSFRSSFYYWGQGTQVTVSS | high polyreactivity
QVQLVESVGGLVQAGGSLRLSCAASGRTFSRFAMGWYRKAPGKERELVAAISYSGGRTYYADSVKGRFTISRDNAKNTVYLQMNSLKPEDTAVYYCAASWPGDTVDYDYWGQGTQVTVSS | high polyreactivity
QVQLVESGGGLVQAGGSLRLSCAASGSIFVFYAMGWYRQAPGKERELVAAISSVGSTYYADSVKGRFTISRDNAKNTVYLQMNSLKPEDTAVYYCAAVTYYSGYYWGQGTQVTVSS | low polyreactivity
QVQLVESGGGLVQAGGSLRLSCAASGLTFKPYAMVWYRQAPGKEREFVAAISWRSGSTYYADSVKGRFTISRDYEKNTVYLQMNRLKPEDTAVYYCNALYRVFVGTYDFWGQGTHVTVSS | high polyreactivity
QDQLVESGGGLVQAGGSLRLSCAASGLILHKYAMGWYRQAPGKERELVASINSGANTNYADSVKGRFTISRDNAKNTLYLHLNSLKPEDTAVYYCAADWQQLSYVWRSQRRYNYWGQGTQVTVSS | low polyreactivity
QVQLVESGGGLVQAGGSLRLSCAASGRTFVPYTMGWYRQAPGKERELVAAISRSGARTYYADSVKGRFTISRDNAKNTVYLQMNSLKPEDTAVYYCVVIARYGYDYWGQGTQVTVSS | high polyreactivity
QVQLVESGGGLVQAGGSLRLSCAASGSINYYAMGWYRQAPGKERELVAAITGSGGSTYYADSVKGRFTISRDNAKNTVYLQMNSLKPEDTAVYYCAARYGYIYGPYYYWGQGTQVTVSS | high polyreactivity
QVQLVESGGGLVQAGGSLRLSCAASGSIFGSYAMGWYRQAPGKERELVAVITSSGNTKYADSVKGRFTISRDNAKNTVYLQMNSLKPEDTAVYYCAARFITWGSQYSFRSMDYWGQGTQVTVSS | high polyreactivity
QVQLVESGGGLVQAGGSLRLSCAASGFIFYFYTMGWYRQAPGKERELVAGITWLDGSTYYADSVKGRFTISRDNAKNTVYLQMNSLKPEDTAVYYCAVDYDLVVSPYYYWGQGTQVTVSS | low polyreactivity
QVQLVESGGGLVQAGGSLRLSCAASGSTFGHNAMGWYRQATGKERELVAAISKSGGRTYYADSVKGRFTISRDNAKNTVYLQMNSLKPEDTAVYYCAKDGVVGSGTLNIYDYWGQGTQVTVSS | low polyreactivity
QVQLVESGGGLVQAGGSLRLSCAASGRTFYYNAMGGYRPAPGKERELVATITWTGDSTYADSVKGRFTISRDNAKNTVYLQMISLKPEDTAVYYCAAGKPVILTGDYDYWGQGTQVTVSS | low polyreactivity
QVQLVESGGGLVQAGGSLRLRCAASGSSFIWNAMGWYRQAPGKERELVAAISSGGSTYYADSVKGRFTISRDNAKNTVDLQMNSQKPPDTAVYYCAAEYVNNVWEQSYAVYSTDDYWGQGTQVTVSS | low polyreactivity
QVQLVDSGGGLVQAGGTLRLSCASSGSTFYYYAMGWYRQAPGKERELVAGITSGGSTNYADSVKGRFTISRDNAKNTVKLLMNSLKPEDTADYYCNARYRKYRYRYDYWGQGTQVSVSS | low polyreactivity
QVQLVESGVGLVQAGGSLRLSCAASGIIFGFYAMGWYRQAPGKERELVAAISVSGGSTNYADSVKGRFTISRDNAKNTVYLQMNSLKPEDTAVYYCAARVRDSLVYGGWDDYWGQGTQVTVSS | high polyreactivity
QVQLVESGGGLVQAGGSLRLSCAASGRTLKINAMGWYRQAPGKERELVARISAGRTYYADSVKGRFTISRDNAKNTVYLQMNSLKPEDTAVYYCARRTNRPPWGFEYWGQGTQVTVSS | high polyreactivity
HVQLVESGGGLVQAGGSLRLSCAASGFTIKYYGMGWYRQAPGKERELVAAISRRGGSTYYADSVKGRFTISRDNAKNTVYLQMNSLKPEDTAVYYCNAQFARSSGFNYWGQGTQVTVSS | high polyreactivity
QVQLVESGGGLVQAGGSLRLSCAASVIIFRQYAMGWSRQAPGKERELVAAISGSGGTTYYADSVKGRFTISRDNAKNTVYLQMNSLKPEDTAVYYCAADSSSRGRLDYWGQGTQVTVSS | high polyreactivity

Sequence | polyreactivity (PSR sort gate)
QVQLVESGGGLVQAGGSLRLSCAASGRILTSNAMGWYRQAPGKERELVAAITYSGDSTYYADSVKGRFTISRDTAKNTVYLQMNSLKPEDTEVYYCAADVLKHFYSFGDERGFPFDYWGQGTQVTVSS | low polyreactivity
QVQLEESVGGLVQEGGSLRLTCAASGRIFGNTMGWYRQAPWKEMELVAAITRSGVSTYYADSVKGRFTSSRDNAKNTVYLQMNSLKPEDTAVYYCADASSYYRGHYDYWGQGTQVTVSS | high polyreactivity
QVQLVESGGGLDQAGGSLRLSCAASGSIFSDNVMGWYRQAPGKERELVAAIRDGDTTNYADSVKGRFTISRDNAKNTVYLQMNSLKPEDTAVYYCAAVQDSSPDYSYAYLDGDRDYWGQGTQVTVSS | low polyreactivity
QVQLVESGGALVQAGGSLRLSCAASGITFYDNAMGWYRQAPGKERELVAGISYSGGRTYYADSVKGRFTISRDNAKNTVYLQMNSLIPEDTAVDYCNARFGKYRSRQGYYYWGQGTQVTVSS | high polyreactivity
QVQLVESGGGLVQAGGSLRLSCAASGFTFYVYTMGWYRQAPGKERELVAAITWSGGSTYYADSVKGRFTISRDNAKNNVYLQMNSLKPEDTAVYYCNRVGYWVGHDSWGQGTQVTVSS | high polyreactivity
QVQLVESAGGLVQAGGSLRLSCAASGIIFTPNPMGWYRQAPGKEREFVAAINYGGDTTYYADSVKGRFTISRNNAKNTVYLQMNRLKPEDTAVYYCATDGTTPTPRDAFVRFDHWGQGTQVTVSS | low polyreactivity
QVQLVESGGGLVQAGGSLRLSCAPSGSIFFPYAIGWYRQAPGKESELVAAISYSGTSTYYADSVKGRFTISRDNAKNTVYLQMNSLIPEDTAVYYCAAEVIGRYIEYYYWGQGTQVTVSS | high polyreactivity
QVQLVESGGGLVQAGGSLRLSCAASGITFTRYAMGWYRQAPGKEREFVAAIRRSGGNTYYADSVKGRFTISRDNAKNTVYLQMNSLKPEDTAVYYCAASPDIIGTSGEDDYWGQGSQVTVSS | low polyreactivity
QVQLVESGGGLVQAGGSLRLSCAASGRIFSSNAMGWYRKAPGKEREFVAAINESGGITFYADSVKGRFTISRDNAKNTVYLQLNSLIPEDTAVYYCAKRDYSPWPADGYPYDYDYWGQGTQVTVSS | low polyreactivity
QVQLVESGGGLVQAGGSLRLSCAASGITVNSYAMGWYRQAPGKERELVAAISGSGSSTYYADSVKGRFTISRDNAKNTVYLQMNSLKPEDTAVYYCAATGFSSWTYYTHEYWGQGTQVTVSS | low polyreactivity
QVQHVESGGGLVQAGGSLRLSCAASGFIFTYYGMGWYRQAPGKERELVAAITWSGASTYYADSVKGRFTISRDNAKNTVYLQMNSLKPEDSAVYYCNAVWDSGIVQSDETVYKYDYWGQGTQVTVSS | low polyreactivity
QVQLVESGGGLVQAGGSLRLSCAASGSTFTINFMGWYRQAPGKERELVAAINGGGRTNYADSVKGRFTISRDNAKNTVYLQMNSLNPEDTAVYYCAAEWRRYEYSDSWEYDYWGQGTQVTVSS | low polyreactivity
QVQLVESGGGLVQAGGSLRLSSAASAGIFAPNAMGLYRQAPGTEREFVAAISTGGGSTRYADSVKGRFTISRDNAKNTVYLQMNSLKPEDTAVYYCAATRVGVRRMDYWGQGTQVTVSS | low polyreactivity
QVQLVESGGGLVQAGGSLRLSCAASGSTLFTYAMGWYRQAPGKERELVAAITSSGSTYYADSVKGRFTISRDNAKNTVYFQMNSLKPEDTAVYYCAVPGYRYTKYYYWGQGTQVTVSS | low polyreactivity
QVQLVESGGGLVQAGGSLRLSCAASGFIFRYNAMGWYRQAPGKERELVASISYSGARTYYADSVKGRFTISRDNEKNTVYLQMNSLKPEDTAVYYCATGPLSYVRYYYWGQGTQVTVSS | low polyreactivity
QVQLVESRVGLVQAGGSLRLSCAASGFTFGHYVMGWYRQAPGKERELVAAITLSGGGTYYADSVKGRFTISRDNAKNTVYLQMNSLKPEDTAVYYCAAVGGEHAKKTYSRYKVDYWGQGTQVTVSS | low polyreactivity
QVQLVESGGGLVHAGGSLRLSCAASGFTFTFYAMGWYRQAPGKERELVATISSNGGSTYYADSVKGRFTISRDNAKNTVYLQMNSLKPEDTAVYYCAAITSYYGYYYWGQGTQVTVSS | high polyreactivity
QVQLVESGGGLVLAGGRLRLSCAASGRNFYGYAMGWYRQAPGKERELVAAISYGGGSTYYADSVKGRFTISRDNAKKTVYLQMNSLKPEDTAVYYCNDFSAYMGQYGYWGQGTQVTVSS | high polyreactivity
QVQLVESGGGLVQAGGSLRLSCAASGNTYSYNAMGWYRQAPGKEREFVASISRRGGRTNYADSVKGRFTISRDNAKYTVYLQMNSLKPEDTAVYYCAATTVPLGDYWGQGTQVTVST | high polyreactivity
QVQLVESGGGLVQAGGSLRLSCAASGSTFDSNTMRWYRQAPGKETELVAAITVSGGSTHYADSVKGRFTISRDNAKNTVYLQMNSLKPEDTAVYYCNRRSYGYGAFSGYDYWGQGTQVTVSS | low polyreactivity
QVQLVESGGGLVQAGGSLRLICAASGGIFDFYAMGWYRQAPGKERELVAAITRSGSSTFYADSVKGRFTISRDNAKNTVYLQMNSLKPEDTAVYYCAAPYYYFAVYYGYIFEYDYWGQGTQVTVSS | low polyreactivity

Reference: the nanobody polyreactivity screen of Harvey et al. (2022)
